“And” between values parts separate entries of the source, which are not always exact repeats. Equal values may be shown once.
Legend:
[1] = target: T1, Purified recombinant human CD26 (rhDipeptidyl peptidase IV), R&D Systems CAT #1180-SE (human, UniProt P27487 29-766); test: SPR (Biacore), Fab
T1 construct: Bought recombinant protein; also called hu-CD26; soluble human CD26
Description: (§1) Fabs produced in E. coli as described below were diluted in PBS in a concentration of ˜0.5 μM for the assay. A typical recording included a 3 minute period of injection of the Fab followed by a period of 15 minutes of dissociation, and analysis was performed based on the raw data of the binding curves accordingly.
The CD26 binding partner was as shown below.

[2] = target: T1, Purified recombinant human CD26 …; test: SPR (Biacore), Fab; remark: listed apart in the source
Description: as §1

[3] = target: T1, Purified recombinant human CD26 …; test: SPR (Biacore), Fab; remark: listed apart in the source
[4] = target: T1, Purified recombinant human CD26 …; test: SPR (Biacore), Fab; remark: listed apart in the source
[5] = target: T1, Purified recombinant human CD26 …; test: SPR (Biacore), CD26 on CM5 chip, Fab injected
Description: as §1

[6] = target: T1, Purified recombinant human CD26 …; test: SPR (Biacore), CD26 preoccupied by the Fab; competitor 14D10 ascites
From the text: A specificity analysis of selected Fabs comprising pairs of variant VH and VL sequences was done. […] The analysis was done using Biacore® as described in Example 1.

[7] = target: T2, human CD26-derived 13 mer peptide 71 (human); test: peptide microarray
T2 peptide: TGKEDIIYNGITD
Description: (§2) The overnight incubation was followed by three washings with each of PBS buffer pH 7.5 and water. The microarrays were then scanned using ArrayWorx-Microarray Scanner.
(§3) The SPOT recognition software package ArrayPro was used for data analysis. The mean of signal intensities from 3 identical subarrays on each microarray image was used for data evaluation.

[8] = target: T3, human CD26-derived 13 mer peptide 87 (human); test: peptide microarray
T3 peptide: GTFLAYAQFNDTE
Description: as §2, §3

[9] = target: T4, human CD26-derived 13 mer peptide 103 (human); test: peptide microarray
T4 peptide: VRVPYPKAGAVNP
Description: as §2, §3

[10] = target: T5, human CD26-derived 13 mer peptide 105 (human); test: peptide microarray
T5 peptide: YPKAGAVNPTVKF
Description: as §2, §3

[11] = target: T6, human CD26-derived 13 mer peptide 110 (human); test: peptide microarray
T6 peptide: VKFFVVNTDSLSS
Description: as §2, §3

[12] = target: T7, human CD26-derived 13 mer peptide 111 (human); test: peptide microarray
T7 peptide: FFVVNTDSLSSVT
Description: as §2, §3

[13] = target: T8, human CD26-derived 13 mer peptide 114 (human); test: peptide microarray
T8 peptide: DSLSSVTNATSIQ
Description: as §2, §3

[14] = target: T9, human CD26-derived 13 mer peptide 116 (human); test: peptide microarray
T9 peptide: SVTNATSIQITAP
Description: as §2, §3

[15] = target: T10, human CD26-derived 13 mer peptide 118 (human); test: peptide microarray
T10 peptide: ATSIQITAPASML
Description: as §2, §3

[16] = target: T11, human CD26-derived 13 mer peptide 119 (human); test: peptide microarray
T11 peptide: SIQITAPASMLIG
Description: as §2, §3

[17] = target: T12, human CD26-derived 13 mer peptide 120 (human); test: peptide microarray
T12 peptide: QITAPASMLIGDH
Description: as §2, §3

[18] = target: T13, human CD26-derived 13 mer peptide 9 (human); test: peptide microarray
T13 peptide: SDHEYLYKQENNI
Description: as §2, §3

[19] = target: T14, human CD26-derived 13 mer peptide 14 (human); test: peptide microarray
T14 peptide: NNILVFNAEYGNS
Description: as §2, §3

[20] = target: T15, human CD26-derived 13 mer peptide 16 (human); test: peptide microarray
T15 peptide: VFNAEYGNSSVFL
Description: as §2, §3

[21] = target: T16, human CD26-derived 13 mer peptide 18 (human); test: peptide microarray
T16 peptide: EYGNSSVFLENST
Description: as §2, §3

[22] = target: T17, human CD26-derived 13 mer peptide 19 (human); test: peptide microarray
T17 peptide: GNSSVFLENSTFD
Description: as §2, §3

[23] = target: T18, human CD26-derived 13 mer peptide 21 (human); test: peptide microarray
T18 peptide: VFLENSTFDEFGH
Description: as §2, §3

[24] = target: T19, human CD26-derived 13 mer peptide 22 (human); test: peptide microarray
T19 peptide: LENSTFDEFGHSI
Description: as §2, §3

[25] = target: T20, human CD26-derived 13 mer peptide 23 (human); test: peptide microarray
T20 peptide: NSTFDEFGHSIND
Description: as §2, §3

[26] = target: T21, human CD26-derived 13 mer peptide 24 (human); test: peptide microarray
T21 peptide: TFDEFGHSINDYS
Description: as §2, §3

[27] = target: T22, human CD26-derived 13 mer peptide 25 (human); test: peptide microarray
T22 peptide: DEFGHSINDYSIS
Description: as §2, §3

[28] = target: T23, human CD26-derived 13 mer peptide 26 (human); test: peptide microarray
T23 peptide: FGHSINDYSISPD
Description: as §2, §3

[29] = target: T24, human CD26-derived 13 mer peptide 27 (human); test: peptide microarray
T24 peptide: HSINDYSISPDGQ
Description: as §2, §3

[30] = target: T25, human CD26-derived 13 mer peptide 32 (human); test: peptide microarray
T25 peptide: DGQFILLEYNYVK
Description: as §2, §3

[31] = target: T26, human CD26-derived 13 mer peptide 44 (human); test: peptide microarray
T26 peptide: IYDLNKRQLITEE
Description: as §2, §3

[32] = target: T27, human CD26-derived 13 mer peptide 45 (human); test: peptide microarray
T27 peptide: DLNKRQLITEERI
Description: as §2, §3

[33] = target: T28, human CD26-derived 13 mer peptide 46 (human); test: peptide microarray
T28 construct: also called NKRQL1TEERIPN
T28 peptide: NKRQLITEERIPN
Description: as §2, §3

[34] = target: T29, human CD26-derived 13 mer peptide 47 (human); test: peptide microarray
T29 peptide: RQLITEERIPNNT
Description: as §2, §3

[35] = target: human CD26 on the cell surface (human, UniProt P27487 1-766); test: cell-based or functional assay
human CD26 on the cell surface, sequence (P27487 whole entry): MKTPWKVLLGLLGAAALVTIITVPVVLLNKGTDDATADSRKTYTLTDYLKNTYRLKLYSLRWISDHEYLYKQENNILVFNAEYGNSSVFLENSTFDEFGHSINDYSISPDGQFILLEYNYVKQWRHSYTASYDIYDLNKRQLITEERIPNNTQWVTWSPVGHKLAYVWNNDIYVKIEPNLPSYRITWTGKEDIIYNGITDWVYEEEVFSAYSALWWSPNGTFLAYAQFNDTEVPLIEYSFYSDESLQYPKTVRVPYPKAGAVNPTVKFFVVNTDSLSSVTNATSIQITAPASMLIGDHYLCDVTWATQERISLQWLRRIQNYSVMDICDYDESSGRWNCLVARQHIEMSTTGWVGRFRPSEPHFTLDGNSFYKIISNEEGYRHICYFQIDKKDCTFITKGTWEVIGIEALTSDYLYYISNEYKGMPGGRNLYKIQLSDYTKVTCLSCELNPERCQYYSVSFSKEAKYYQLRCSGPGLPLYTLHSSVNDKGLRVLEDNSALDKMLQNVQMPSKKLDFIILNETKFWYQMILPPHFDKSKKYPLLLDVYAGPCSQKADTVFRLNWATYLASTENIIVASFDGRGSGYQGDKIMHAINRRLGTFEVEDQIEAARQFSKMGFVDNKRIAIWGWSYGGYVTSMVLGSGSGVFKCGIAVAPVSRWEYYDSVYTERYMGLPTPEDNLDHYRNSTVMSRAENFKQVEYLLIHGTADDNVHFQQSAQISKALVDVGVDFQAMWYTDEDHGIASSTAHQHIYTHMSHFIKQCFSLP

T1 sequence (P27487 29-766 limits assumed): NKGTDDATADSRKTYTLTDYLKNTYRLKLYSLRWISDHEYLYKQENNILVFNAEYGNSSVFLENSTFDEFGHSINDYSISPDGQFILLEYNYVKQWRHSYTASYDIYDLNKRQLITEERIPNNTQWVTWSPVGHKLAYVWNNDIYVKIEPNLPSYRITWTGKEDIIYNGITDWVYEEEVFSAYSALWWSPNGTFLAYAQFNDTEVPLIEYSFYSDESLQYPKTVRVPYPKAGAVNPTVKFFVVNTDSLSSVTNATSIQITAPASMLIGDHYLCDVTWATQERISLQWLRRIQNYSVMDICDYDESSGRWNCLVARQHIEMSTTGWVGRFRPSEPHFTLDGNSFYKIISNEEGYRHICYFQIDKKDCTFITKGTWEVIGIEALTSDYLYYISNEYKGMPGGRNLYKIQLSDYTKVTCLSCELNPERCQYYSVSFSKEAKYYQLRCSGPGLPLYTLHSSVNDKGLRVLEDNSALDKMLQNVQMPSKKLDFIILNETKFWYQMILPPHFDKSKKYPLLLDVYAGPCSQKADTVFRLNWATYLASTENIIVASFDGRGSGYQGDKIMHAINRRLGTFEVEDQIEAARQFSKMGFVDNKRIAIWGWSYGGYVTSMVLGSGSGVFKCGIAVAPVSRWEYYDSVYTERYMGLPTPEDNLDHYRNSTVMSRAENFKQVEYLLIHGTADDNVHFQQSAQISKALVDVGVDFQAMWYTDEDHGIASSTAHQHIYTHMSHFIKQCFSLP

B1: CM03 Fab X369 (Fab, V domains shown)
VH: QVKLQESGPGLVQPSQTLSITCTVSGFSLTTYGVHWVRQSPGKGLEWLGVIWGGGRTDYDAAFISRLSISKDNSKSQVFFKMNSLQANDTAIYYCVRNRHDWFDYWGQGTTVTVSS
VL: DIQMTQSPSSLSASLGDRVTITCSASQGIRNSLNWYQQKPDGAVKLLIYYSSNLHSGVPSRFSGSGSGTDFSLTISNLEPEDIATYYCQQSIKLPFTFGSGTKLEIK
notes: Recombinant Fab made in E. coli; also called CM03 X369; CM03 (X369)
[1]
  Kd: 1.63 nM
[2]
  Kd: 1.63 nM
[3]
  Kd: 1.63 nM and 1.6 nM
[4]
  Kd: 1.63 nM
[5]
  Kd: 1.63 nM
[6]
  percent decrease in binding of 14D10 to CD26: ≥ 80%

B2: rhuMAb 420 (antibody, human IgG1, V domains shown)
VH: EVQLVESGGGVKQPGETLRLTCTASGFSLSTYGVHWVRQAPGKGLEWVGVIWGDGRTDYDAAFMSRVTISKDTSKSTVYLQMNSLRAEDTAVYYCMRNRHDWFDYWGQGTTVTVSS
VL: EIEMTQSPSSLSVSAGERATISCSASQDIRNSLNWYQQKPGQAPRLLIYYSSNLHTGVPARFSGSGSGTDFTLTISRLEPEDVAIYYCQQSNKLPLTFGSGTKVEIKR
notes: X420 VH and X380 VL with human IgG1 and human kappa constant regions; also called X420 (IgG1)
[7]
  Mean Signal Value: 0
[8]
  Mean Signal Value: 0
[9]
  Mean Signal Value: 0
[10]
  Mean Signal Value: 0
[11]
  Mean Signal Value: 0
[12]
  Mean Signal Value: 0
[13]
  Mean Signal Value: 0
[14]
  Mean Signal Value: 0
[15]
  Mean Signal Value: 0
[16]
  Mean Signal Value: 0
[17]
  Mean Signal Value: 0
[18]
  Mean Signal Value: 0
[19]
  Mean Signal Value: 0
[20]
  Mean Signal Value: 0
[21]
  Mean Signal Value: 0
[22]
  Mean Signal Value: 0
[23]
  Mean Signal Value: 0
[24]
  Mean Signal Value: 0
[25]
  Mean Signal Value: 0
[26]
  Mean Signal Value: 0
[27]
  Mean Signal Value: 0
[28]
  Mean Signal Value: 0
[29]
  Mean Signal Value: 0
[30]
  Mean Signal Value: 0
[31]
  Mean Signal Value: 0
[32]
  Mean Signal Value: 0
[33]
  Mean Signal Value: 0
[34]
  Mean Signal Value: 0
[35]
  percent inhibition, MTT assay, Jurkat CD26+ cells, 0.05 ug/ml: 3.7%
  percent inhibition, MTT assay, Jurkat CD26+ cells, 0.25 ug/ml: 9.6%
  percent inhibition, MTT assay, Jurkat CD26+ cells, 0.5 ug/ml: 9.2%
  percent inhibition, MTT assay, Jurkat CD26+ cells, 2.5 ug/ml: 16.6%
  percent inhibition, MTT assay, Jurkat CD26+ cells, 5 ug/ml: 15.9%
